Laboratory results published in patent US20200181677A1 (REGENTS OF THE UNIVERSITY OF MINNESOTA, published 2020).
Ends that are not written are not given here.

Target: T1, human PKCα catalytic domain (human, UniProt P17252 336-672, limits assumed)
T1 construct: domain: catalytic domain; For activity assays the catalytic domain was isolated by TEV cleavage; also called catalytic domain of PKCα; PKC catalytic domain
Assay: time-resolved FRET (TCSPC) of eGFP/mCherry peptide-catalytic domain sensor

Row | Mol Fraction Bound | Mol Fraction Unbound | Binder
1 | 0.16 mol fraction | 0.84 mol fraction | RRRRAIIFI (peptide, not shown: large carriers; small tags and cut ends, also called p10) [peptide #10 (Optimized PKA Sub.), alanine-substituted, in PKCα FRET sensor]
2 | 0.15 mol fraction | 0.85 mol fraction | FKLKRKGAFKKFA (also: fused to PKCα catalytic domain via 10 nm ER/K linker in FRET sensor, Ala form in the FRET sensor, tethered to the PKCα catalytic domain by the 10 nm ER/K FRET linker; also called p11) [peptide #11 (Optimized PKCβ Sub.), alanine-substituted, in PKCα FRET sensor]
3 | 0.08 mol fraction | 0.92 mol fraction | ASQKRPAQRH (peptide, not shown: large carriers; small tags and cut ends, also called p6) [peptide #6 (Myelin Basic Protein), alanine-substituted, in PKCα FRET sensor]
